The target of this experiment is SARS-CoV-2 Delta Spike antigen (SARS-CoV-2 Delta).

From US20260234223A1 come the findings set out here.

Broadly, the EC50 is the concentration at which the effect is half-maximal.

Anti-S1 antibody DZIF-10c registered an EC50 of 6.9 nM.
The result for Anti-S1 mAb ImdevimAb (antibody) reads 0.01 nM.
